The record followed here is publication PMC9412862.

For test [1], the target named is NS4b full-length (residues 1-249), C-terminal six-histidine tag (dengue virus serotype 1). Kind of test: BLI. For orientation: BLI is a label-free optical method that tracks binding on a fibre tip over time.
Test [2] has the same target. Kind of test: SEC. (In general: In gel filtration, larger molecules generally elute earlier.)

As to “helicase domain of DENV NS3 (NS3Hel), residues 178-619, C-terminal 6-histidine tag (domain or fragment)”, the Kd (commonly the constant that tells how readily two partners part at equilibrium) in test [1] turned out to be 508 nM.
In the case of “NS4b full-length (residues 1-249), C-terminal six-histidine tag (natural protein)”, the stoichiometry N (in general, the number of molecules, sites or subunits per partner or assembly) in test [2] is 2.
